Reference: publication PMC5100602

Biological target: Gk-S15 (ribosomal protein S15) (Geobacillus kaustophilus) (UniProt Q5L0I3)
Test: filter binding
Details: SELEX Binding Buffer A: 50 mM Tris/acetate pH 7.5, 20 mM Mg-acetate, 270 mM KCl, 5 mM DTT, 0.02% BSA, 25 C, 30 min; filter binding (nitrocellulose/nylon) as …

Gk-mRNA
Kd: 0.7 nM
